To fix the notation:
B1: Membrane-associated guanylate kinase, WW and PDZ domain-containing protein 2, residues 296 to 340; numbered along this chain, Q86UL8 (parent)
chain: EDNEEPDPLPDNWEMAYTEKGEVYFIDHNTKTTSWLDPRLAKKAK
B2: Poly(rC)-binding protein 1, residues 278 to 350; numbered along this chain, Q15365 (parent)
chain: TQTTHELTIPNNLIGCIIGRQGANINEIRQMSGAQIKIANPVEGSSGRQVTITGSAASISLAQYLINARLSSE

± gives the uncertainty stated by the source.

The values that follow come from the Human Domainome abundance scans (Beltran et al. 2025).

In the first series the parent is B1. Nature of the series: abundance fitness (aPCA) (normalised: wild type 0, dead -1); higher = more abundant; growth selection in yeast, the domain comes from the species named. Particulars: Homo sapiens.
In the case of D2L, the abundance fitness was found to be 0.072 ± 0.064.
With D2S, the abundance fitness stood at 0.068 ± 0.07.
On to D2R, for which the abundance fitness was determined as 0.05 ± 0.054.
Regarding D2A, the abundance fitness was 0.125 ± 0.071.
With D2E, the abundance fitness was -0.131 ± 0.15.
For the variant D2N, the abundance fitness was 0.072 ± 0.053.
For the variant D2Q, the abundance fitness is 0.08 ± 0.14.
As for D2W, the abundance fitness was -0.029 ± 0.064.
Turning to D2P, the abundance fitness was -0.01 ± 0.11.
Same read-out and setting: under A16E stands -0.239 ± 0.062; under A16R, -0.127 ± 0.052; under A16M, -0.254 ± 0.065.
In the case of A16D, the abundance fitness was -0.398 ± 0.14.
Take A16K: the abundance fitness was -0.119 ± 0.064.
With A16I, the abundance fitness was -0.529 ± 0.15.
Same read-out and setting: under A16S stands 0.002 ± 0.074; under A16G, -0.109 ± 0.052.
On the same count and under the same terms, under A16C stands -0.274 ± 0.089.
For A16T, the abundance fitness was -0.335 ± 0.071.
Regarding A16V, the abundance fitness was -0.271 ± 0.053.
In the case of A16F, the abundance fitness is -0.709 ± 0.23.
As for A16L, the abundance fitness was -0.337 ± 0.055.
Same read-out and setting: as for A16Y, the figure is -0.432 ± 0.093.
A16W: the abundance fitness was -0.598 ± 0.07.
On to P8G, for which the abundance fitness is -0.03 ± 0.044.
Turning to P8S, the abundance fitness was -0.056 ± 0.056.
Regarding P8R, the abundance fitness was 0.052 ± 0.062.
In the case of P8A, the abundance fitness is -0.014 ± 0.054.
Consider P8E, for which the abundance fitness was -0.069 ± 0.056.
Regarding P8M, the abundance fitness came to 0.019 ± 0.074.
As to P8Y, the abundance fitness is -0.228 ± 0.12.
Same read-out and setting: under P8D stands -0.121 ± 0.093.
Take P8T: the abundance fitness is -0.035 ± 0.059.
As to P8H, the abundance fitness was -0.105 ± 0.058.
As to P8L, the abundance fitness came out at 0.021 ± 0.058.
On to P8I, for which the abundance fitness is -0.156 ± 0.096.
Turning to Y24W, the abundance fitness is -0.568 ± 0.049.
Y24L: the abundance fitness was -0.557 ± 0.09.
For the variant Y24T, the abundance fitness is -0.872 ± 0.097.
Take Y24S: the abundance fitness is -0.703 ± 0.083.
Y24D: the abundance fitness is -0.618 ± 0.084.
Turning to Y24G, the abundance fitness is -0.816 ± 0.048.
In the case of Y24V, the abundance fitness was -0.598 ± 0.074.
Same read-out and setting: as for Y24A, the figure is -0.664 ± 0.075; as for Y24Q, -0.809 ± 0.11.
Y24P: the abundance fitness was -1.07 ± 0.21.
Turning to Y24C, the abundance fitness was -0.546 ± 0.28.
Y24R: the abundance fitness is -0.86 ± 0.071.
Still for that read-out and setting: under Y24N stands -1.08 ± 0.49.
On to E19N, for which the abundance fitness was 0.031 ± 0.071.
Regarding E19L, the abundance fitness is -0.091 ± 0.053.
On to E19K, for which the abundance fitness is -0.031 ± 0.07.
Consider E19W, for which the abundance fitness was -0.319 ± 0.062.
On the same count and under the same terms, as for E19I, the figure is -0.117 ± 0.1.
As to E19Q, the abundance fitness was found to be 0.02 ± 0.097.
For the variant E19R, the abundance fitness is -0.104 ± 0.041.
For the variant E19A, the abundance fitness was found to be 0.054 ± 0.052.
With E19D, the abundance fitness was -0.025 ± 0.086.
Turning to E19T, the abundance fitness amounted to 0.018 ± 0.046.
The same measure, in the same setting: under E19S stands -0.021 ± 0.066.
Still for that read-out and setting: under E19G stands -0.107 ± 0.043.
With E19V, the abundance fitness is -0.079 ± 0.056.
On to E19P, for which the abundance fitness is -0.013 ± 0.062.
Regarding L9S, the abundance fitness is -0.453 ± 0.5.
Consider E4A, for which the abundance fitness worked out at 0.016 ± 0.056.
Same read-out and setting: as for E4V, the figure is 0.027 ± 0.044; as for E4R, 0.109 ± 0.056.
Consider E4P, for which the abundance fitness worked out at 0.138 ± 0.18.
As to E4S, the abundance fitness was 0.078 ± 0.089.
Consider E4Q, for which the abundance fitness was 0.306 ± 0.11.
Regarding E4G, the abundance fitness amounted to 0.1 ± 0.07.
Regarding E4C, the abundance fitness is -0.005 ± 0.1.
Same read-out and setting: as for E4L, the figure is 0.03 ± 0.096; as for F25N, -0.756 ± 0.1; as for F25K, -0.637 ± 0.12.
Turning to F25G, the abundance fitness was -0.75 ± 0.054.
On the same count and under the same terms, under F25T stands -0.839 ± 0.077.
Regarding F25E, the abundance fitness was -0.661 ± 0.14.
Consider F25L, for which the abundance fitness is -0.896 ± 0.064.
Still for that read-out and setting: under F25R stands -0.715 ± 0.063.
Turning to F25W, the abundance fitness was -0.103 ± 0.09.
As for F25S, the abundance fitness is -0.777 ± 0.066.
Take F25V: the abundance fitness was -1.05 ± 0.08.
For K20E, the abundance fitness was found to be 0.027 ± 0.067.
The same measure, in the same setting: under K20C stands -0.009 ± 0.092; under K20R, -0.032 ± 0.042; under K20S, 0.002 ± 0.075.
K20P: the abundance fitness is -0.353 ± 0.068.
Same read-out and setting: under K20L stands -0.078 ± 0.052; under K20G, -0.011 ± 0.042; under K20Q, 0.018 ± 0.055.
For the variant K20T, the abundance fitness was -0.063 ± 0.06.
Regarding K20M, the abundance fitness is -0.004 ± 0.059.
In the case of K20D, the abundance fitness is -0.022 ± 0.063.
For the variant K20V, the abundance fitness is -0.075 ± 0.044.
Consider K20I, for which the abundance fitness is -0.12 ± 0.065.
In the case of K20A, the abundance fitness was -0.02 ± 0.043.
With K20W, the abundance fitness is -0.267 ± 0.06.
As for W13S, the abundance fitness is -0.556 ± 0.069.
As to W13L, the abundance fitness is -0.385 ± 0.056.
Regarding W13R, the abundance fitness was -0.642 ± 0.087.
For the variant W13V, the abundance fitness was -0.32 ± 0.17.
On to W13G, for which the abundance fitness was -0.787 ± 0.054.
Y17I: the abundance fitness was determined as 0.017 ± 0.1.
Still for that read-out and setting: under Y17K stands -0.048 ± 0.1; under Y17N, -0.042 ± 0.15; under Y17F, -0.029 ± 0.045.
As for Y17D, the abundance fitness is -0.355 ± 0.066.
With Y17T, the abundance fitness is -0.039 ± 0.14.
Still for that read-out and setting: as for Y17H, the figure is 0.066 ± 0.089; as for Y17C, 0.004 ± 0.067; as for Y17A, -0.025 ± 0.056.
In the case of Y17L, the abundance fitness turned out to be 0.024 ± 0.069.
For Y17S, the abundance fitness is -0.03 ± 0.064.
Regarding Y17R, the abundance fitness stood at 0.049 ± 0.055.
On to Y17E, for which the abundance fitness was -0.42 ± 0.47.
As to Y17G, the abundance fitness is -0.349 ± 0.072.
For the variant Y17P, the abundance fitness is -0.828 ± 0.22.
Y17W: the abundance fitness was 0.021 ± 0.048.
Turning to T18C, the abundance fitness was -0.454 ± 0.061.
On the same count and under the same terms, under T18Q stands -0.849 ± 0.09.
As for T18F, the abundance fitness was -0.953 ± 0.11.
With T18N, the abundance fitness is -0.382 ± 0.18.
As for T18R, the abundance fitness is -0.91 ± 0.073.
On to T18I, for which the abundance fitness is -0.997 ± 0.14.
Consider T18E, for which the abundance fitness was -0.574 ± 0.3.
For the variant T18S, the abundance fitness is -0.048 ± 0.077.
Take T18K: the abundance fitness is -0.476 ± 0.16.
As for T18G, the abundance fitness is -0.354 ± 0.048.
Take T18A: the abundance fitness is -0.308 ± 0.061.
Take T18P: the abundance fitness was -1.08 ± 0.13.
As for T18Y, the abundance fitness is -0.93 ± 0.25.
For the variant T18L, the abundance fitness is -0.514 ± 0.064.
With T18W, the abundance fitness was -0.725 ± 0.11.
Consider N12E, for which the abundance fitness is -0.303 ± 0.12.
Still for that read-out and setting: under N12G stands 0.088 ± 0.061; under N12M, -0.292 ± 0.072.
Consider N12S, for which the abundance fitness is -0.199 ± 0.077.
Consider N12V, for which the abundance fitness was -0.703 ± 0.14.
On the same count and under the same terms, as for N12T, the figure is -0.224 ± 0.093; as for N12R, -0.044 ± 0.051; as for N12W, -0.271 ± 0.091.
Take N12D: the abundance fitness is -0.136 ± 0.064.
For N12C, the abundance fitness is -0.163 ± 0.12.
Turning to V23E, the abundance fitness is -0.038 ± 0.046.
Regarding V23Q, the abundance fitness came to 0.14 ± 0.077.
On to V23W, for which the abundance fitness is -0.295 ± 0.05.
On the same count and under the same terms, as for V23L, the figure is -0.062 ± 0.072; as for V23P, -0.038 ± 0.099.
As to V23G, the abundance fitness was -0.088 ± 0.066.
On to H28P, for which the abundance fitness was -0.652 ± 0.065.
On the same count and under the same terms, under H28F stands -0.267 ± 0.18; under H28K, -0.269 ± 0.1.
Turning to H28G, the abundance fitness is -0.431 ± 0.044.
For H28A, the abundance fitness is -0.417 ± 0.045.
With H28E, the abundance fitness is -0.642 ± 0.088.

Variants of B2 are the subject of another series. Described as above. Conditions: Homo sapiens.
Take E73P: the abundance fitness is -0.161 ± 0.41.
Turning to E73W, the abundance fitness is -0.325 ± 0.45.
As for E73D, the abundance fitness stood at 0.212 ± 0.2.
Same read-out and setting: as for E73F, the figure is 0.315 ± 0.48.
Turning to E73T, the abundance fitness is -0.03 ± 0.29.
Still for that read-out and setting: under E73M stands 0.245 ± 0.17; under E73G, -0.016 ± 0.1.
Turning to E73S, the abundance fitness amounted to 0.302 ± 0.21.
With E73L, the abundance fitness was -0.004 ± 0.19.
Take E73R: the abundance fitness was -0.019 ± 0.12.
As to E73V, the abundance fitness was 0.182 ± 0.17.
